The source of these data is patent US20150166662A1 (ROCKEFELLER UNIVERSITY, published 2015).

Assay [1] has as its target T1, recombinant sCD4 comprising the full-length extracellular domain of human CD4 (human, UniProt P01730 26-396).
T1 construct: also called human soluble CD4; human sCD4 protein
The assay is described as follows: SPR (Biacore), antibody amine-coupled on the chip, human sCD4 as analyte, 25 C, 1:1 Langmuir fit. As to the method: (§1) Binding affinity analyses were performed with a Biacore T3000 optical biosensor (GE Healthcare, Piscataway, N.J.). Immobilization of ibalizumab and all the glycan variants were performed following the standard amine coupling procedure. Briefly, carboxyl groups on the sensor chip surface were activated by injection of 35 μL of a solution containing 0.2 M N-(3-dimethylaminopropyl)-N-ethylcarbodiimide and 0.05 M Nhydroxysuccinimide at a flow rate of 5 μL/minute. Next, ibalizumab or its mutant variant, at a concentration of 2 μg/mL in 10 mM sodium-acetate buffer, pH 4.5, was allowed to flow over the chip surface at a rate of 10 μL/minute until the desired level of response units of reacted protein (150-200 RU) was achieved. After unreacted protein was washed out, excess active ester groups on the sensor surface were capped by the injection of 35 μL of 1 M ethanolamine, pH 8.0, at a flow rate of 5 μL/minute. As background to correct instrument and buffer artifacts, a reference was generated under the same conditions with omission of the protein ligand. Binding experiments were performed at 25° C. in HBS-EP buffer (0.01 M HEPES, 0.15M NaCl, 3 mM EDTA, 0.005% vol/vol surfactant P20 (GE Healthcare). Binding kinetics were measured by passing various concentrations of analyte (human sCD4 protein) over the chip surface at a flow rate of 30 μL/minute for 3 min. Dissociation of bound analytes was monitored while the surface was washed for 10 min. Remaining analytes were removed at a flow rate of 50 µL/minute with two 30-sec injections of 10 mM glycine-HCl, pH 2.0. For kinetics data analysis, the kinetic parameters were determined by collectively fitting the overlaid sensograms […] using the BIAevaluation 4.1 software to the 1:1 Langmuir binding model.
(§2) We next evaluated the kinetics of binding of these ibalizumab LMs to human soluble CD4 (sCD4) by surface plasmon resonance. In a Biacore assay using sCD4 as the analyte, WT ibalizumab and LMs bound sCD4 with similar binding kinetics.
A general note: In SPR one partner is held on a chip, and binding of the other changes the refractive index at the surface.

For assay [2], the target named is T1, recombinant sCD4 comprising the …. Description: SPR (Biacore), sCD4 as analyte; member of the six by its KD in Table 1. As to the method: as §1, §2

Numbering of substitutions follows the chain as printed.

B1: LM30E, ibalizumab light chain mutant with an N-linked glycosylation site at position 30E (antibody, human IgG1, kappa, V domains shown)
VH: QVQLQQSGPEVVKPGASVKMSCKASGYTFTSYVIHWVRQKPGQGLDWIGYINPYNDGTDYDEKFKGKATLTSDTSTSTAYMELSSLRSEDTAVYYCAREKDNYATGAWFAYWGQGTLVTVSS
VL: DIVMTQSPDSLAVSLGERVTMNCKSSQSLLYSTNNATYLAWYQQKPGQSPKLLIYWASTRESGVPDRFSGSGSGTDFTLTISSVQAEDVAVYYCQQYYSYRTFGGGTKLEIKR
Take B1: in assay [1], the equilibrium dissociation constant (Kd) turned out to be 1.4 nM, the koff amounted to 0.00015 s⁻¹ and the kon came to 110000 M⁻¹ s⁻¹.

B2: LM53, ibalizumab light chain mutant with an N-linked glycosylation site at position 53 (antibody, human IgG1, kappa, V domains shown)
VH: B1 VH
VL: B1 VL with N35Q, A36K, T37N, T59N, R60A, E61T
As to B2, the “fold of KD against wild-type ibalizumab” value in assay [2] was at most 2 fold. Also, in assay [1], the equilibrium dissociation constant (Kd) came out at 0.45 nM, the off-rate (koff) amounted to 0.00013 s⁻¹ and the kon was determined as 290000 M⁻¹ s⁻¹.

B3: LM52, glycan-modified anti-CD4 IgG1 antibody with an N-linked glycan at light chain position 52 (antibody, V domains shown)
VH: B1 VH
VL: B1 VL with N35Q, A36K, T37N, S58N, T59S, R60T
On to B3, for which, in assay [2], the “fold of KD against wild-type ibalizumab” value was at most 2 fold. For the same molecule, in assay [1], the equilibrium dissociation constant (Kd) amounted to 0.35 nM, the koff amounted to 0.00016 s⁻¹ and the kon came out at 460000 M⁻¹ s⁻¹.

B4: LM60, ibalizumab light chain mutant with an N-linked glycosylation site at position 60 (antibody, human IgG1, kappa, V domains shown)
VH: B1 VH
VL: B1 VL with N35Q, A36K, T37N, D66N, R67A, F68T
Regarding B4, the “fold of KD against wild-type ibalizumab” value in assay [2] is at most 2 fold. In assay [1], the equilibrium dissociation constant (Kd) turned out to be 0.19 nM, the koff is 8.3e-05 s⁻¹ and the on-rate constant (kon) amounted to 440000 M⁻¹ s⁻¹.

B5: LM76, ibalizumab light chain mutant with an N-linked glycosylation site at position 76 (antibody, human IgG1, kappa, V domains shown)
VH: B1 VH
VL: B1 VL with N35Q, A36K, T37N, S82N, S83A, V84T
As for B5, the “fold of KD against wild-type ibalizumab” value in assay [2] is at most 2 fold. Also, in assay [1], the dissociation constant (Kd) amounted to 0.28 nM, the koff was 0.00014 s⁻¹ and the kon was 500000 M⁻¹ s⁻¹.

B6: LM67, ibalizumab light chain mutant with an N-linked glycosylation site at position 67 (antibody, human IgG1, kappa, V domains shown)
VH: B1 VH
VL: B1 VL with N35Q, A36K, T37N, S73N, G74A
As to B6, the “fold of KD against wild-type ibalizumab” value in assay [2] is at most 2 fold. In assay [1], the dissociation constant (Kd) was 0.8 nM, the off-rate constant (koff) came out at 0.0002 s⁻¹ and the kon is 250000 M⁻¹ s⁻¹.

B7: LM54, ibalizumab light chain mutant with an N-linked glycosylation site at position 54 (antibody, human IgG1, kappa, V domains shown)
VH: B1 VH
VL: B1 VL with N35Q, A36K, T37N, R60N, E61A, S62T
As to B7, the “fold of KD against wild-type ibalizumab” value in assay [2] is at most 2 fold. In addition, in assay [1], the Kd worked out at 0.73 nM, the koff stood at 0.00027 s⁻¹ and the on-rate (kon) amounted to 370000 M⁻¹ s⁻¹.

B8: LM65, ibalizumab light chain mutant with an N-linked glycosylation site at position 65 (antibody, human IgG1, kappa, V domains shown)
VH: B1 VH
VL: B1 VL with N35Q, A36K, T37N, S71N, G72A, S73T
Take B8: in assay [1], the Kd was determined as 1.5 nM, the off-rate constant (koff) was 0.00049 s⁻¹ and the kon is 330000 M⁻¹ s⁻¹.

Usually Kd stands for the concentration at which binding is half-saturated. Usually koff stands for the first-order rate constant of dissociation. The term kon denotes the rate constant with which the complex forms.
